Experiment [1] addresses T1, “empty” DQ6 (DQA1*01:02/DQB1*06:02) on yeast (Homo sapiens, UniProt P01909+P01920).
T1 construct: A PCR fragment carrying the extracellular domain of HLA-DQA1*0102 with C-terminal Fos was cloned into ptDR1; A second PCR fragment carrying the extracellular domain of HLA-DQB1*0602 with C-terminal Jun was cloned into pDQ6α; Syn-pre-pro leader (secretion leader) (N); expressed in transfected cells; host or cells: Saccharomyces cerevisiae EBY100, surface display via Aga1p/Aga2p
Put plainly: RIPPA competition assay, yeast displaying “empty” DQ6, HCRT 15-mer peptides. The experiment is classed as binding. The note with it: for DQ6 binding (in words): method not given, possible false positives. The method, then:
FIGS. 4A-4C. RIPPA identified all DQ6 binders from HCRT. FIG. 4A. Yeast expressing “empty” DQ6 was incubated with 20 μM HCRT1-13-Bio and 200 μM of the indicated non-biotinylated HCRT 15-mer peptide at pH 5.0, 30° C. for 20 hours and analyzed by flow cytometry. % Competition=100%−% binding (% binding as calculated in FIG. 3E). Error bars represent SEM from three independent experiments. Bolded letters denote previously identified 9-aa DQ6-binding registers^4, 5, 42: […], SSGAAAQPL, NHAAGILTL and NHAAGILTM, respectively. HCRT49-63 or HCRT81-95 covers <8 aa of the previously determined registers. Binding ranks for each HCRT peptide predicted by NetMHCIIpan-4.0 (trained on both elution and binding data) are shown as 100-% rank to the left. FIGS. 4B-4C. Correlation analysis for binding data acquired using “empty” DQ6 on yeast versus soluble CLIP/DQ6 protein (FIG. 4B) or versus NetMHCIIpan-4.0 prediction (FIG. 4C). Arrows indicate peptides that show binding in one method but not the other in the comparison. Open circles in FIG. 4B match open bars in FIG. 4A, indicating ligands identified by both empirical methods.
6×10^5 galactose-induced yeast were incubated at pH 5.0, 30° C. for 20 hours with 20 μM biotinylated indicator peptides in the presence of various concentrations of a competitor peptide to determine an appropriate competitor concentration for a competition assay. […] After incubation, the yeast cells were washed with PBS+1% BSA, stained with streptavidin-AF647 and analyzed by flow cytometry as described above. […]
Sufficient amounts of galactose-induced yeast cells displaying “empty” DQ6 were collected by centrifugation at 2,500 g for 3 min and resuspended in the 40 mM citrate buffer (pH 5.0) at a density of 1.5×10^4 cells μl^−1. […] DQ6-associated HCRT1-13-Bio was labeled with streptavidin-AF647 and analyzed by flow cytometry as described above. The binding of a competitor peptide to “empty” DQ6 on yeast was quantified as % competition=100%−[(MFIwith competitor−background)/(MFIwithout competitor−background)]×100%.

For experiment [2], the target named is T2, “empty” DR4 (DRA*01:01/DRB1*04:01) on yeast (Homo sapiens, UniProt P01903+P01911).
T2 construct: the α chain ectodomain, with or without the Jun motif, was designed to be secreted from yeast; the DR4 β chain ectodomain, with or without the Fos motif, was engineered to the upstream of yeast AGA2 gene; Syn-pre-pro leader (secretion leader) (N); expressed in transfected cells; host or cells: Saccharomyces cerevisiae EBY100, surface display via Aga1p/Aga2p
The experiment in a line: RIPPA competition assay, yeast displaying “empty” DR4, SARS-CoV-2 S peptides. The note with it: 200 μM competitor vs 20 μM Bio-HA306-318, pH 5.0, 30° C., 20 hours. It counts as binding.

This is an account of results in US20220381793A1, “COMPOSITIONS AND METHODS FOR IDENTIFYING MHC-II BINDING PEPTIDES” (priority 2021, published 2022).

T1 sequence (P01909 with tags, fused parts or gaps with the stated changes): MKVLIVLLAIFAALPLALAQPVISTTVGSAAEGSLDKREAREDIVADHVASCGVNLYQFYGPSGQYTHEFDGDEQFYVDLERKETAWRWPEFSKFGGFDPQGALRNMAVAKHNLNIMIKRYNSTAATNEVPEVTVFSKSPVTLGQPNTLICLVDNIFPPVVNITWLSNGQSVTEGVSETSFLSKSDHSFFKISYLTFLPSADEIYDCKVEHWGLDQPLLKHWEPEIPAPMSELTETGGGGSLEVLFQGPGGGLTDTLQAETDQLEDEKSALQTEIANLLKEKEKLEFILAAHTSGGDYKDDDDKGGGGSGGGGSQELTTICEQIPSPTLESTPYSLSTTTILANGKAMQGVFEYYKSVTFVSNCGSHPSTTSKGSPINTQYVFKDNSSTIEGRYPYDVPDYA
T1 sequence (P01920 with tags, fused parts or gaps with the stated changes): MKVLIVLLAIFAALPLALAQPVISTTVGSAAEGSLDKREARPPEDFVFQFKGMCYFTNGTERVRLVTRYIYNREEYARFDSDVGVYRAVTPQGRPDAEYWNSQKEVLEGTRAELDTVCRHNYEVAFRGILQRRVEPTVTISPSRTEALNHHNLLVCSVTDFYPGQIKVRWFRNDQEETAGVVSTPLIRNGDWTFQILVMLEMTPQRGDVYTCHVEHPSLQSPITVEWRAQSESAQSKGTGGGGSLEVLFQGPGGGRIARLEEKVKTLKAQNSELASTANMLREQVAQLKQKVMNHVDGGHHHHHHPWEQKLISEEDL
T1 sequence (P32323 25-725 partner): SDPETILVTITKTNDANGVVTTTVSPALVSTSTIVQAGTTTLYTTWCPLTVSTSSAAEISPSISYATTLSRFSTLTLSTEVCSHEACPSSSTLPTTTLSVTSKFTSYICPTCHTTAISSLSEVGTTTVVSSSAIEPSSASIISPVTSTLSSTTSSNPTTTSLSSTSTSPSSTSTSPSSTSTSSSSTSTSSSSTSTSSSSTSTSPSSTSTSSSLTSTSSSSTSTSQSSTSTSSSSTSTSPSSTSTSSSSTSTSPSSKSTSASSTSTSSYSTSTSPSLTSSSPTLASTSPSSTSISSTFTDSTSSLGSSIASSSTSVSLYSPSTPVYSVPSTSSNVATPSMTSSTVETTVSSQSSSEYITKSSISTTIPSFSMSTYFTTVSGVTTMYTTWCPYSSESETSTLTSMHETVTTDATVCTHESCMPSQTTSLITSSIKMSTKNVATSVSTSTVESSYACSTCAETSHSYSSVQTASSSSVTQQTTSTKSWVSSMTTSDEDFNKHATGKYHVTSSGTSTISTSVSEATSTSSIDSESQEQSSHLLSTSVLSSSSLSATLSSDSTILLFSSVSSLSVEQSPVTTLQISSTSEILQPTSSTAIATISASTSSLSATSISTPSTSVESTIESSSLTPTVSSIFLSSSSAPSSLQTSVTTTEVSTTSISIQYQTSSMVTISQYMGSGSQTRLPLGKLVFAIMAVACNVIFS
T2 sequence (P01903 with tags, fused parts or gaps): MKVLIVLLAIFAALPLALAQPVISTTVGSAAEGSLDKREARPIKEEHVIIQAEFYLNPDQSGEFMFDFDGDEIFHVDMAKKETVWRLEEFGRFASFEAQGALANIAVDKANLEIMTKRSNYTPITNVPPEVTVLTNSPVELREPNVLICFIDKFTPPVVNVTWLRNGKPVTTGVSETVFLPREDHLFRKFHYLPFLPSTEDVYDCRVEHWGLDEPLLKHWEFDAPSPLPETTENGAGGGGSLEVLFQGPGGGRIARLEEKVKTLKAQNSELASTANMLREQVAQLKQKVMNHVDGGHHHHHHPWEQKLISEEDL
T2 sequence (P01911 with tags, fused parts or gaps with the stated changes): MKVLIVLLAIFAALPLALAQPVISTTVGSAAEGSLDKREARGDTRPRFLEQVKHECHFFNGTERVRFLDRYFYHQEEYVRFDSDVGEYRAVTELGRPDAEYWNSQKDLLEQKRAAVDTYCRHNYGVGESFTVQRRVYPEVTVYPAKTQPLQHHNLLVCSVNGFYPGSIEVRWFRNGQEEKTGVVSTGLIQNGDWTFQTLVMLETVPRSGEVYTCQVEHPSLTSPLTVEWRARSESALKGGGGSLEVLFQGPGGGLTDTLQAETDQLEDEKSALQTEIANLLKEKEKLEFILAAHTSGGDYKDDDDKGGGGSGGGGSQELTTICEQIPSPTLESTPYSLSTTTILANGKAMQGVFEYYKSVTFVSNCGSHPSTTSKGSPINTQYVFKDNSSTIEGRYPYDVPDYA
T2 sequence (P32323 25-725 partner): as the sequence (P32323 25-725 partner) above

Consider “HCRT81-95: 15-mer overlapping peptide derived from prepro-HCRT (hypocretin precursor) (QRLLQASGNHAAGIL; UniProt O43612 81-95, looked up, fragment)”, for which the “DQ6 binding (in words)” value in experiment [1] is listed as “bound DQ6”.
The same measure, in the same setting: as for “HCRT49-63: 15-mer overlapping peptide derived from prepro-HCRT (hypocretin precursor) (LYELLHGAGNHAAGI; UniProt O43612 49-63, looked up, fragment)”, the entry is “bound DQ6”.
Regarding “S1058-1074: 17-mer overlapping peptide derived from the SARS-CoV-2 S protein (HGVVFLHVTYVPAQEKN)”, in experiment [2], the “% competition” value is listed as around 75%.
On the same count and under the same terms, as for “S764-780: 17-mer overlapping peptide derived from the SARS-CoV-2 S protein (NRALTGIAVEQDKNTQE)”, the figure is below 50%; as for “5862-888: DR4 ligand peptide from the SARS-CoV-2 S protein (label probably misprinted) (PPLLTDEMIAQYTSALL)”, around 75%.
Turning to “HCRT89-103: 15-mer overlapping peptide derived from prepro-HCRT (hypocretin precursor) (NHAAGILTMGRRAGA)”, in experiment [1] (200 μM competitor vs 20 μM HCRT1-13-Bio, pH 5.0, 30° C., 20 hours), the “% competition” value is on record as above 75%.
